One block for each molecule: values may come before it.
Assays:
[1] = target: butelase-1 (active form extracted from Clitoria ternatea plant material) (Clitoria ternatea); assay: affinity binding of glycosylated enzyme to ConA agarose beads; unbound protein measured by A280
[2] = target: butelase-1 (active form extracted from Clitoria ternatea plant material) (Clitoria ternatea); assay: affinity binding of glycosylated enzyme to ConA agarose beads, 4 C 3 h; unbound protein in flow-through measured by A280
[3] = target: biotinylated VyPAL2 (Viola yedoensis); assay: affinity binding of biotinylated enzyme to NeutrAvidin agarose beads, pH 6.5, 4 C 3 h; unbound protein measured by A280
[4] = target: biotinylated butelase-1 (Clitoria ternatea); assay: as above
[5] = target: T1, GN14-SLAN (GISTKSIPPISYRNSLAN)
T1 chain: GISTKSIPPISYRNSLAN

percent of enzyme remaining in the solution (unbound) [1]: 61% | Yield (%) (observed / expected maximal concentration on beads) [2]: 39%
Molecule: Concanavalin A (ConA) on agarose beads (from UniProt P02866 30-281)

Yield (%) (observed / expected maximal concentration on beads) [3]: 45% | Yield (%) (observed / expected maximal concentration on beads) [4]: 49%
Molecule: NeutrAvidin (deglycosylated avidin) on agarose beads (from UniProt P02701 25-152)

B1: VyPAL2 (recombinant, insect-cell expressed, acid-activated active form) (protein)
chain: STNDDDSIGTRWAVLIAGSKGYHNYRHQADVCHMYQILRKGGVKDENIIVFMYDDIAYNESNPFPGIIINKPGGENVYKGVPKDYTGEDINNVNFLAAILGNKSAIIGGSGKVLDTSPNDHIFIYYADHGAPGKIGMPSKPYLYADDLVDTLKQKAATGTYKSMVFYVEACNAGSMFEGLLPEGTNIYAMAASNSTEGSWITYCPGTPDFPPEFDVCLGDLWSITFLEDCDAHNLRTETVHQQFELVKKKIAYASTVSQYGDIPISKDSLSVYMGTDPANDNRTFVDEN
catalytic efficiency (kcat/KM) of cyclization, HPLC-based kinetics, pH 6.5, 37 C [5]: 274,325 M^-1s^-1

B2: butelase-1 (active form extracted from Clitoria ternatea plant material) (protein)
chain: VEGTRWAVLVAGSKGYVNYRHQADVCHAYQILKKGGLKDENIIVFMYDDIAYNESNPHPGVIINHPYGSDVYKGVPKDYVGEDINPPNFYAVLLANKSALTGTGSGKVLDSGPNDHVFIYYTDHGGAGVLGMPSKPYIAASDLNDVLKKKHASGTYKSIVFYVESCESGSMFDGLLPEDHNIYVMGASDTGESSWVTYCPLQHPSPPPEYDVCVGDLFSVAWLEDCDVHNLQTETFQQQYEVVKNKTIVALIEDGTHVVQYGDVGLSKQTLFVYMGTDPAN
catalytic efficiency (kcat/KM) of cyclization, HPLC-based kinetics, pH 6.5, 37 C [5]: 971,936 M^-1s^-1
